From patent publication US20100169995A1 (RESEARCH FOUNDATION OF STATE UNIVERSITY OF NEW YORK, published 2010)

B1: human IQGAP2 (cDNA, transiently expressed in COS1 cells) (other, UniProt Q13576 1-1575, looked up)
chain: MPHEELPSLQRPRYGSIVDDERLSAEEMDERRRQNIAYEYLCHLEEAKRWMEVCLVEELPPTTELEEGLRNGVYLAKLAKFFAPKMVSEKKIYDVEQTRYKKSGLHFRHTDNTVQWLRAMESIGLPKIFYPETTDVYDRKNIPRMIYCIHALSLYLFKLGIAPQIQDLLGKVDFTEEEISNMRKELEKYGIQMPSFSKIGGILANELSVDEAALHAAVIAINEAVEKGIAEQTVVTLRNPNAVLTLVDDNLAPEYQKELWDAKKKKEENARLKNSCISEEERDAYEELLTQAEIQGNINKVNRQAAVDHINAVIPEGDPENTLLALKKPEAQLPAVYPFAAAMYQNELFNLQKQNTMNYLAHEELLIAVEMLSAVALLNQALESNDLVSVQNQLRSPAIGLNNLDKAYVERYANTLLSVKLEVLSQGQDNLSWNEIQNCIDMVNAQIQEENDRVVAVGYINEAIDEGNPLRTLETLLLPTANISDVDPAHAQHYQDVLYHAKSQKLGDSESVSKVLWLDEIQQAVDDANVDKDRAKQWVTLVVDVNQCLEGKKSSDILSVLKSSTSNANDIIPECADKYYDALVKAKELKSERVSSDGSWLKLNLHKKYDYYYNTDSKESSWVTPESCLYKESWLTGKEIEDIIEEVTVGYIRENIWSASEELLLRFQATSSGPILREEFEARKSFLHEQEENVVKIQAFWKGYKQRKEYMHRRQTFIDNTDSIVKIQSWFRMATARKSYLSRLQYFRDHNNEIVKIQSLLRANKARDDYKTLVGSENPPLTVIRKFVYLLDQSDLDFQEELEVARLREEVVTKIRANQQLEKDLNLMDIKIGLLVKNRITLEDVISHSKKLNKKKGGEMEILNNTDNQGIKSLSKERRKTLETYQQLFYLLQTNPLYLAKLIFQMPQNKSTKFMDTVIFTLYNYASNQREEYLLLKLFKTALEEEIKSKVDQVQDIVTGNPTVIKMVVSFNRGARGQNTLRQLLAPVVKEIIDDKSLIINTNPVEVYKAWVNQLETQTGEASKLPYDVTTEQALTYPEVKNKLEASIENLRRVTDKVLNSIISSLDLLPYGLRYIAKVLKNSIHEKFPDATEDELLKIVGNLLYYRYMNPAIVAPDGFDIIDMTAGGQINSDQRRNLGSVAKVLQHAASNKLFEGENEHLSSMNNYLSETYQEFRKYFKEACNVPEPEEKFNMDKYTDLVTVSKPVIYISIEEIISTHSLLLEHQDAIAPEKNDLLSELLGSLGEVPTVESFLGEGAVDPNDPNKANTLSQLSKTEISLVLTSKYDIEDGEAIDSRSLMIKTKKLIIDVIRNQPGNTLTEILETPATAQQEVDHATDMVSRAMIDSRTPEEMKHSQSMIEDAQLPLEQKKRKIQRNLRTLEQTGHVSSENKYQDILNEIAKDIRNQRIYRKLRKAELAKLQQTLNALNKKAAFYEEQINYYDTYIKTCLDNLKRKNTRRSIKLDGKGEPKGAKRAKPVKYTAAKLHEKGVLLDIDDLQTNQFKNVTFDIIATEDVGIFDVRSKFLGVEMEKVQLNIQDLLQMQYEGVAVMKMFDKVKVNVNLLIYLLNKKFYGK
B2: IQGAP2 (mouse, endogenous, liver lysate) (other, UniProt Q3UQ44 1-1575, looked up)
chain: MPHEELPSLQRPRYGSIVDDERLSAEEMDERRRQNIAYEYLCHLEEAKRWMEVCLVEELPPTTELEEGLRNGVYLAKLAKFFAPKMVSEKKIYDVEQTRYKKSGLHFRHTDNTVQWLRAMEAIGLPKIFYPETTDVYDRKNIPRMIYCIHALSLYLFKLGIAPQIQDLLGKVDFTEEEISNMRKELEKYGIQMPAFSKIGGILANELSVDEAALHAAVIAINEAIEKGVAKQTIITLRNPNAVLTCVDDSLSQEYQKELWEAKKKKEESAKLKNSCISEEERDAYEELLTQAEIQSNISTVNRMAAVDHINAVLQEGDPENTLLALKKPEAQLPAVYPFAAVMYQNELFNLQKQNTSNYLAHEELLIAVEMLSAVALLNQALESSDLVAVQNQLRSPTIGFNNLDEAHVDRYADALLSVKQEALSQGQDTLSWNEIQNCIDMINNQIQEENDRMVVLGYINEAIDAGNPLKTLDTLLLPTANIRDVDPDCAQHYQDVLFYTKSQKLGDPKNVSKVLWLDEIQQAINEANVDENRAKQWVTLVVDVNECLDRKQSDHILTALKSSPSNIHNILPECANKYYDTLVKAKESKTDNESSEGSWVTLNVQEKYNYYYNTDSKEGSWVPPELCLSKESWLTGEEIEDIVEEVTSDYIREKLWSASEDLLVRFEATTLGPALREEFEARKAFLYEQTESVVKIQAFWKGFKQRQEYLHRQQVFAGNVDSVVKIQSWFRMVTARKSYLSRLRYFEDHKNEIVKIQSLLRASKARDDYKALVGSENPPLTVIRKFVYLLDQSDLDFQEELEVARLREEVVTKIRANQQLEKDLNLMDIKIGLLVKNRITLEDVISHRKKLNKKKGGEIEILNNTDNKGIKSLSKERRKTLETYQQLFYLLQTKPSYLAKLIFQMPQNKSTKFMDTVIFTLYNYASNQREEYLLLKLFKTALEEEIKSKVDQVQDIVTGNPTVIKMVVSFNRGARGQNTLRQLLAPVVKEIIEDKALVINTNPVEVYKAWVNQLETQTGEASKLPYDVTTEQALTYPEVKNKLEASIENLRKVTDKVLGSIISSLDLLPYGLRYIAKVLKNSIREKFPDATEEELLKIVGNLLYYRYMNPAIVAPDGFDIIDMTAGGQINSNQRRNLGSVAKVLQHAASNKLFEGENEHLSSMNNYLSETYQEFRKYFQEACDVPEPEEKFNMDKYTDLVTVSKPVIYISIEEIINTHLLLLEHQDAIATEKSDLLNELLESLGEVPTVESFLGEGAVDPNDPNKENTLNQLSKTEISLSLTSKYDVKDGEAVDGRSLMIKTKKLIIDVTRNQPGSTLTEILETPATGQQELEHAKDMESRAVVDSRTPEEGKQSQAVIEDARLPLEQKKRKIQRNLRTLEQTGHVSSKNKYQDILNEIAKDIRNQRIHRKLRKAELSKLQQTLNALNKKAAFYEDQINYYDTYIKTCVDNLKRKNSRRSIKLDGKAEPKGTKRVKPVRYTAAKLHDKGVLLGIDDLQTNQFKNVMFDIIATEDMGIFDVRSKFLGVEMEKVQLNIQDLLQMQYEGVAVMKMFDKVKVNVNLLIYLLNKKFYGK
B3: E-cadherin (mouse, endogenous, liver lysate) (other, UniProt P09803 157-884, looked up)
chain: DWVIPPISCPENEKGEFPKNLVQIKSNRDKETKVFYSITGQGADKPPVGVFIIERETGWLKVTQPLDREAIAKYILYSHAVSSNGEAVEDPMEIVITVTDQNDNRPEFTQEVFEGSVAEGAVPGTSVMKVSATDADDDVNTYNAAIAYTIVSQDPELPHKNMFTVNRDTGVISVLTSGLDRESYPTYTLVVQAADLQGEGLSTTAKAVITVKDINDNAPVFNPSTYQGQVPENEVNARIATLKVTDDDAPNTPAWKAVYTVVNDPDQQFVVVTDPTTNDGILKTAKGLDFEAKQQYILHVRVENEEPFEGSLVPSTATVTVDVVDVNEAPIFMPAERRVEVPEDFGVGQEITSYTAREPDTFMDQKITYRIWRDTANWLEINPETGAIFTRAEMDREDAEHVKNSTYVALIIATDDGSPIATGTGTLLLVLLDVNDNAPIPEPRNMQFCQRNPQPHIITILDPDLPPNTSPFTAELTHGASVNWTIEYNDAAQESLILQPRKDLEIGEYKIHLKLADNQNKDQVTTLDVHVCDCEGTVNNCMKAGIVAAGLQVPAILGILGGILALLILILLLLLFLRRRTVVKEPLLPPDDDTRDNVYYYDEEGGGEEDQDFDLSQLHRGLDARPEVTRNDVAPTLMSVPQYRPRPANPDEIGNFIDENLKAADSDPTAPPYDSLLVFDYEGSGSEAASLSSLNSSESDQDQDYDYLNEWGNRFKKLADMYGGGEDD

How the values were obtained:
[1] = target: human IQGAP1 (full-length cDNA, transiently expressed in COS1 cells) (human, UniProt P46940 2-1657); experiment: reciprocal co-immunoprecipitation from lysates of transiently transfected COS1 cells, immunoblot detection
human IQGAP1 (full-length cDNA, transiently expressed in COS1 cells), sequence (P46940 2-1657 limits assumed): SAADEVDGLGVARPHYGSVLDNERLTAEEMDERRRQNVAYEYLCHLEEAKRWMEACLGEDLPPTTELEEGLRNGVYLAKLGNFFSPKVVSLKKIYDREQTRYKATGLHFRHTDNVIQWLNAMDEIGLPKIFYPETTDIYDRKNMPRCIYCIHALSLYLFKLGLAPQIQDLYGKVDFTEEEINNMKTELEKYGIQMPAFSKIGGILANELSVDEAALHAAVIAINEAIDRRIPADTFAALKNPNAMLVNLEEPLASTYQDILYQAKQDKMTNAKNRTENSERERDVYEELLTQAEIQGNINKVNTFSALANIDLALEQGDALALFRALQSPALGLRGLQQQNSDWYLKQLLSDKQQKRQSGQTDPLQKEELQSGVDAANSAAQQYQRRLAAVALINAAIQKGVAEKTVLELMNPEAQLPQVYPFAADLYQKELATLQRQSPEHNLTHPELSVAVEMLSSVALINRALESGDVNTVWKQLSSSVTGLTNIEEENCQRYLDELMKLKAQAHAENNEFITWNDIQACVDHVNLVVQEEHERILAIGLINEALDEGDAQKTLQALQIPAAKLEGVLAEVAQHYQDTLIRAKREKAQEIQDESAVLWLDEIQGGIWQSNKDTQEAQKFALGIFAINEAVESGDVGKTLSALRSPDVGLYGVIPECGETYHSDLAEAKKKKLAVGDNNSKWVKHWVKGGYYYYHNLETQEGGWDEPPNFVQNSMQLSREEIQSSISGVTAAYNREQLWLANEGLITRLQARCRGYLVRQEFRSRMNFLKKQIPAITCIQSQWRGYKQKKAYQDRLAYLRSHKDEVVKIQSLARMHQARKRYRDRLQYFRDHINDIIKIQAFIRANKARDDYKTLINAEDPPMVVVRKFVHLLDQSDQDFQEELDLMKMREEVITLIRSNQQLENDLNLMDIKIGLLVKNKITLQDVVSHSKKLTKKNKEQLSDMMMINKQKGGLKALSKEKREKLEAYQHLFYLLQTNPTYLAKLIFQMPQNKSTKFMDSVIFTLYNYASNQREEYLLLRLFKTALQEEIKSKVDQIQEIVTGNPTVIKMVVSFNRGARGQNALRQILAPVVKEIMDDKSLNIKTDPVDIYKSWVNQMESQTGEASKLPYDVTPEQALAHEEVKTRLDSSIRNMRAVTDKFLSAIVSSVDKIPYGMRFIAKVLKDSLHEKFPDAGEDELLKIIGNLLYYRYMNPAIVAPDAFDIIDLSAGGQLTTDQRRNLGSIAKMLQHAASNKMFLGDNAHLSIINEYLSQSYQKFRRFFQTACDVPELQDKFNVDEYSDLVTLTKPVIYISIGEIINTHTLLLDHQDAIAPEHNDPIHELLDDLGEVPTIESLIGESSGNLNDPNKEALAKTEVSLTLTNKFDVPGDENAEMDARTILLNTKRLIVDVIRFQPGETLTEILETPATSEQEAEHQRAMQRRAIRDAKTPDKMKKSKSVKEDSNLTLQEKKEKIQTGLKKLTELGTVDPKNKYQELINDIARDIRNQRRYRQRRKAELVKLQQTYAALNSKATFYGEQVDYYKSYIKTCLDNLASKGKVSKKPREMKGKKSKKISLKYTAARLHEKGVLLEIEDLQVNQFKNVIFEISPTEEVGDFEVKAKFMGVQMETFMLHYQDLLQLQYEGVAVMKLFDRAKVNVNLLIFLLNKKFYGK
Experimental: (§1) To further probe the relationships between IQGAP1, IQGAP2, β-catenin, and E-cadherin, a series of immunoprecipitation experiments were conducted using whole-liver lysates from Iqgap1^{-/-}, Iqgap2^{-/-}, and wildtype mice. […] In contrast, there was no evidence for specific interaction between E-cadherin and IQGAP2 in either E-cadherin- or IQGAP2-specific immunoprecipitations. […] Using normal hepatocytes, however, neither IQGAP1- nor IQGAP2-specific pull-down assays coprecipitated the corresponding homologous protein. Transient transfections of […] (which endogenously express IQGAP1) were subsequently used as an in vitro model system to specifically address the existence of putative IQGAP1-IQGAP2 heterodimers. As evident in FIG. 15B, IQGAP1 or IQGAP2 were not pulled down by reciprocal immunoprecipitations. Thus, while IQGAP1 and IQGAP2 are normally found as components of a broader quarternary scaffolding complex in hepatocytes, there appears to be no evidence that their presence within this scaffold occurs via direct (heterodimeric) interactions.
(§2) Immunoprecipitation experiments were completed using freshly isolated murine livers essentially as described previously (Schmidt, V. A., et al. 2003. Blood 101:3021-3028). In brief, intact livers were homogenized in 25 mM HEPES-0.15 M NaCl buffer, pH 7.45, supplemented with 0.1% Triton X-100 and standard protease inhibitors. […]

[2] = target: IQGAP1 (mouse, endogenous, liver lysate) (mouse, UniProt Q9JKF1 2-1657); experiment: reciprocal co-immunoprecipitation from normal mouse hepatocyte/liver lysates, immunoblot detection
IQGAP1 (mouse, endogenous, liver lysate), sequence (Q9JKF1 2-1657 limits assumed): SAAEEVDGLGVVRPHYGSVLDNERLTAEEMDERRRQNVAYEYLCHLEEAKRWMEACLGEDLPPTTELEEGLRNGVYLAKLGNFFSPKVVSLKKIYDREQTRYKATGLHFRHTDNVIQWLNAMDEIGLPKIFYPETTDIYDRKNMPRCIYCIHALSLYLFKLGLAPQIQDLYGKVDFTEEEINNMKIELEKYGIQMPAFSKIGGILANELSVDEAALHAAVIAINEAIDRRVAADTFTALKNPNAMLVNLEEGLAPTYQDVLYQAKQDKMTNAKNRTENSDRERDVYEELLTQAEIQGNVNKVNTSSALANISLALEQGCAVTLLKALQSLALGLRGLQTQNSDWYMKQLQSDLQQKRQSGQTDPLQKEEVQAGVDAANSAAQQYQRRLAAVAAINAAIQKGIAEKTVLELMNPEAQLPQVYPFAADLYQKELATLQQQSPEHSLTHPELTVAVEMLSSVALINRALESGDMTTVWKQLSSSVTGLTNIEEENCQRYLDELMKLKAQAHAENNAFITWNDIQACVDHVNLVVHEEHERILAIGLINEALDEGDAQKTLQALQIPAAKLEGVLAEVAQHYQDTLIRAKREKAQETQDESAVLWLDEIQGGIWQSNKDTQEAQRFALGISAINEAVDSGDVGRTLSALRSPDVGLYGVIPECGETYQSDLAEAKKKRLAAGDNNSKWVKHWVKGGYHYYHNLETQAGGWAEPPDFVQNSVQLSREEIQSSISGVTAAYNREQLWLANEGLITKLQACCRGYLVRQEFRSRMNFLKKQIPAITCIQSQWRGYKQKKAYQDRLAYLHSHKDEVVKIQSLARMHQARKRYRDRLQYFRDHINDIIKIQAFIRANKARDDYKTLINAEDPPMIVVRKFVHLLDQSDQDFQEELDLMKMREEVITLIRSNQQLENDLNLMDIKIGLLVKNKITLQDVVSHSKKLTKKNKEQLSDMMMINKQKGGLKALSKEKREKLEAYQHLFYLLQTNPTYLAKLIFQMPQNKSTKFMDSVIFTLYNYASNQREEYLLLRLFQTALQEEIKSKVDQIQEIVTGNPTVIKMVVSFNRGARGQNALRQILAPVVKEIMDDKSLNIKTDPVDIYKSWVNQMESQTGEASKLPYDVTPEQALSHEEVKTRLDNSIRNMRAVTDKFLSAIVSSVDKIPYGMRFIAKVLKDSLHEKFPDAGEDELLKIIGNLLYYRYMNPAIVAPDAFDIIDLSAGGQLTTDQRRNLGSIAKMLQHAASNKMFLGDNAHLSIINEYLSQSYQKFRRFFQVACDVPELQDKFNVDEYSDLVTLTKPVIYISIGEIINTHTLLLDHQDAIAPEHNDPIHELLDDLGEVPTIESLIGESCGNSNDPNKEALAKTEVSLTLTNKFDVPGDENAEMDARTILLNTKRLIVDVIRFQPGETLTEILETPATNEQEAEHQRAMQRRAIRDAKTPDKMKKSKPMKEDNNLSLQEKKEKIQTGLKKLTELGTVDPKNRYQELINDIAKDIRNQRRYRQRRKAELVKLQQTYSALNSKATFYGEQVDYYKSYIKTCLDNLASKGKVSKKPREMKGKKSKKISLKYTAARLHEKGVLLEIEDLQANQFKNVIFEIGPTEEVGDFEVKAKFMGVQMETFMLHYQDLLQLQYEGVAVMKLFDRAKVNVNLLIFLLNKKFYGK
Experimental: as §1, §2

[3] = target: B2; experiment: co-immunoprecipitation from mouse whole-liver lysates, immunoblot detection
Experimental: as §1, §2

B1
binding result [1]: no binding

B2
binding result [2]: no binding

B3
binding result [3]: no binding
